Experimental findings from US20060034835A1 (Genentech, published 2006) are described below.

The target of assay [1] is human CD20 (human) (UniProt P11836). Put plainly: cell-based or functional assay.
The target in assay [2] is T1, human CD20 (human, UniProt P11836 1-297).
T1 construct: whole, on cells; also called CD20 antigen; Bp35
T1 sequence (looked up): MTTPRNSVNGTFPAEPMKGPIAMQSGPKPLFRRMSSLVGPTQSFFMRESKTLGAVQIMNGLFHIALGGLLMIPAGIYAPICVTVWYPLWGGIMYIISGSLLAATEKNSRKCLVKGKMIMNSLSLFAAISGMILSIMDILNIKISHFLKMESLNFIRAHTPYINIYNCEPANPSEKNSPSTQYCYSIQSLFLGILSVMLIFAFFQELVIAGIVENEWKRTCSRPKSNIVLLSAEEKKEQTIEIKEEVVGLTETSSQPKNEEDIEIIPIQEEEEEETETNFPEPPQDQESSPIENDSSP
Briefly: cell-based ELISA on WIL2-S cells.
Experimental: To measure relative binding affinities to the CD20 antigen, a cell-based ELISA assay was developed. […] The cells were washed with PBS containing 1% FBS (assay buffer) and seeded at 250-300,000 cell/well in 96-well round bottom plates (Nunc, Roskilde, Denmark). […] The plates were buried in ice and incubated for 45 min. To remove the unbound antibody, 0.1 mL assay buffer were added to the wells. Plates were centrifuged and supernatants were removed. Cells were washed two more times with 0.2 mL assay buffer. Antibody bound to the plates was detected by adding peroxidase conjugated goat anti-human Fc antibody (Jackson ImmunoResearch, West Grove, Pa.) to the plates. After a 45 min incubation, cells were washed as described before. TMB substrate (3,3′,5,5′-tetramethyl benzidine; Kirkegaard & Perry Laboratories, Gaithersburg, Md.) was added to the plates. The reaction was stopped by adding 1 M phosphoric acid. Titration curves were fit with a four-parameter nonlinear regression curve-fitting program (KaleidaGraph, Synergy software, Reading, Pa.). The absorbance at the midpoint of the titration curve (mid-OD) and its corresponding concentration of the standard were determined. Then the concentration of each variant at this mid-OD was determined, and the concentration of the standard was divided by that of each variant.

On to Rituxan (rituximab) (antibody), for which, in assay [1], the ADCC: EC50(variant)/EC50(2H7.v16) came out at 5.3, the ADCC: EC50(variant)/EC50(Rituxan) is 1, the CDC: EC50(variant)/EC50(Rituxan) worked out at 1 and the apoptosis of Ramos cells: fraction of Annexin V stained cells at 10 nM crosslinked antibody came out at 16.5%. In assay [1], this molecule displayed an apoptosis of Ramos cells: fraction of doubly labeled cells at 10 nM crosslinked antibody of 38% and an apoptosis of Ramos cells: live cells counted per 10 s at 10 nM crosslinked antibody (cells per 10 s) of 3100.

B1: 2H7 version 166 (antibody, human IgG1, kappa, V domains shown)
VH: EVQLVESGGGLVQPGGSLRLSCAASGYTFTSYNMHWVRQAPGKGLEWVGAIYPGNGDTSYNQKFKGRFTISVDKSKNTLYLQMNSLRAEDTAVYYCARVVYYGGDWYFDVWGQGTLVTVSS
VL: DIQMTQSPSSLSASVGDRVTITCRASSSVSYMHWYQQKPGKAPKPLIYAPSNLASGVPSRFSGSGSGTDFTLTISSLQPEDFATYYCQQWSFNPPTFGQGTKVEIKR
notes: IgG1; Y100b is deleted (written as a substitution with an empty new residue)
Consider B1, for which, in assay [2], the Relative binding was 0.99 ratio to 2H7.v16.
